Data from patent EP0935607B1.

Key:
[1] = target: detergent soluble DR2 purified from an EBV transformed B cell line (human) (UniProt P01903); assay: time course ELISA at 37°C, 200 nM DR2, 2 µM peptide, L243 capture
[2] = target: recombinant HLA-DR2 fusion protein (DRα-Fos / DRβ-Jun heterodimer, DRA*0101 / DRB1*1501) secreted by Pichia pastoris (human); assay: as above

For “biotinylated MBP(85-99) peptide, biotin-SGSG-MBP(85-99) (from UniProt P02686 85-99)”, which time to plateau of binding [1] is on record?
The time to plateau of binding was greater than 48 h.

And the time to 50% maximum binding [2]?
Its time to 50% maximum binding is 3 h.

And the time to plateau of binding [2]?
Its time to plateau of binding is 18 h.
